Measured values published in publication doi:10.1101/2024.06.01.596940 (bioRxiv, 2024).

B1: human CXCL13 (ligand)
chain: VLEVYYTSLRCRCVQESSVFIPRRFIDRIQILPRGNGCPRKEIIVWKKNKSIVCVDPQAEWIQRMMEVLRKRSSSTLPVPVFKRKIP
B2: viral macrophage inflammatory protein II (ligand)
chain: GDTLGASWHRPDKCCLGYQKRPLPQVLLSSWYPTSQLCSKPGVIFLTKRGRQVCADKSKDWVKKLMQQLPVTAR
B3: human CCL19 (ligand)
chain: GTNDAEDCCLSVTQKPIPGYIVRNFHYLLIKDGCRVPAVVFTTLRGRQLCAPPDQPWVERIIQRLQRTSAKMKRRSS
B4: human CXCL17 (ligand)
chain: SSLNPGVARGHRDRGQASRRWLQEGGQECECKDWFLRAPRRKFMTVSGLPKKQCPCDHFKGNVKKTRHQRHHRKPNKHSRACQQFLKQCQLRSFALPL
B5: human CCL25 (ligand)
chain: QGVFEDCCLAYHYPIGWAVLRRAWTYRIQEVSGSCNLPAAIFYLPKRHRKVCGNPKSREVQRAMKLLDARNKVFAKLHHNTQTFQAGPHAVKKLSSGNSKLSSSKFSNPISSSKRNVSLLISANSGL
B6: human GPR15L (ligand)
chain: KRRPAKAWSGRRTRLCCHRVPSPNSTNLKGHHVRLCKPCKLEPEPRLWVVPGALPQV
B7: mouse GPR15L (ligand)
chain: RRHPAKSLKLRRCCHLSPRSKLTTWKGNHTRPCRLCRNKLPVKSWVVPGALPQI
B8: mouse CXCL17 (ligand)
chain: SPNPGVARSHGDQHLAPRRWLLEGGQECECKDWFLQAPKRKATAVLGPPRKQCPCDHVKGREKKNRHQKHHRKSQRPSRACQQFLKRCHLASFALPL

biological target: human GPR182 (untagged), stably expressed on HEK293T cells (human, UniProt O15218 1-404); test: flow cytometry on cells
Sequence (O15218 whole entry): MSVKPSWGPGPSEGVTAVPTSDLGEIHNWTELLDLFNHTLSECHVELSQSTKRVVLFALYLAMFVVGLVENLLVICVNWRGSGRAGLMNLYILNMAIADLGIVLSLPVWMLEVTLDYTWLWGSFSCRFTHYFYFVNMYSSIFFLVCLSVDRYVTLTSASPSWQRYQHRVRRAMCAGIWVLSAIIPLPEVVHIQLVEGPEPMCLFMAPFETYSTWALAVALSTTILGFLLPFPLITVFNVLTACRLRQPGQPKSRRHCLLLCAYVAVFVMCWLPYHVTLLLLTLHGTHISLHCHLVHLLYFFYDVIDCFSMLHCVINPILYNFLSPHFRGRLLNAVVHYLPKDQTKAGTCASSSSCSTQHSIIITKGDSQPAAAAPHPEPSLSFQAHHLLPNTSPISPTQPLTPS

**Q.** Which pIC50 does the source give for B1 here?
**A.** 7.67

**Q.** For B2, which pIC50 is on record?
**A.** 7.87

**Q.** With B3 as the binder, how does the pIC50 read?
**A.** 7.21

**Q.** For B4, which pIC50 is on record?
**A.** 7.89

**Q.** Which pIC50 does the source give for B5 here?
**A.** 7.17

**Q.** Which pIC50 does the source give for B6 here?
**A.** 8

biological target: T1, mouse GPR182 (untagged), stably expressed on HEK293T cells (mouse, UniProt P43142 1-398); test: flow cytometry on cells
T1 sequence: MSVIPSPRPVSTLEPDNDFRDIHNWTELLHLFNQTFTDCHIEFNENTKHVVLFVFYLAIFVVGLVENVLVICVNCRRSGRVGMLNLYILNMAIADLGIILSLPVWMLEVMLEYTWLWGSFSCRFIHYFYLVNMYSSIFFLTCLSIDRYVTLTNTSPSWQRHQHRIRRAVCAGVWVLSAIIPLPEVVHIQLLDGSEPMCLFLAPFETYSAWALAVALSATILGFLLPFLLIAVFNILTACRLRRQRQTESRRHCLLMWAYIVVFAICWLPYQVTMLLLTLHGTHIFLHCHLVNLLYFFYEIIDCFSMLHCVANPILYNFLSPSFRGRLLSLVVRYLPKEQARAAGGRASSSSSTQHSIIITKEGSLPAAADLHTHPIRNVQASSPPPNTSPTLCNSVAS

**Q.** B2 was tested. Which pIC50 did it give?
**A.** 6.13

**Q.** For B7, which pIC50 is on record?
**A.** 7.06

**Q.** How did the pIC50 turn out when B8 was run?
**A.** 5.61
